Among the data in patent US20260250381A1 are Binding Signal (fold over 6E7 parental antibody) values, retold here.

T1: human TREM2 (human) (UniProt Q9NZC2)
T1 sequence (looked up): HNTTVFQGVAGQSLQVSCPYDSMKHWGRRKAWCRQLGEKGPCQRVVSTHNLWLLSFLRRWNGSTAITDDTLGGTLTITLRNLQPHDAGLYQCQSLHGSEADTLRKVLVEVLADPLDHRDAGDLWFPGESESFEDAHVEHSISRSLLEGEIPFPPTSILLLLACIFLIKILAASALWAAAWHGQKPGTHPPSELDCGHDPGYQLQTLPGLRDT

B1: 6E7 variant V39 (antibody, V domains shown)
VH: EVQLVQSGAEVKKPGESLKISCKGSGYSFGSYWIAWVRQMPGKGLEWMGIIYPGDSDTRYNPSFQGQVTISADKSISTAYLQWSSLKASDTAMYFCARGRTFYYDSSDYFDYWGQGTLVTVSS
VL: DIQMTQSPSSVSASVGDRVTITCRASQGISSWLAWYQQKPGKAPKLLIYAASSLVNGVPSRFSGSGSGTDFTLTISSLQPEDFATYFCQQADSSPRTFGQGTKLEIK
B2: 6E7 variant V1 (antibody, V domains shown)
VH: B1 VH with G30T, Y32S, N61S, G99S
VL: B1 VL with V55T, S94Y
B3: 6E7 variant V74 (antibody, V domains shown)
VH: B1 VH with G30A, T58V, N61S
VL: B1 VL with V55Q, N56L, S94F
B4: 6E7 variant V2 (antibody, V domains shown)
VH: B1 VH with Y27S, G30T, S56G, N61S, G99S
VL: B1 VL with L54R, V55Q, S93R, S94F
B5: 6E7 variant V50 (antibody, V domains shown)
VH: B1 VH with I50V, N61S, G99Q, F110L
VL: B1 VL with L54R, V55Q, S94L
B6: 6E7 variant V48 (antibody, V domains shown)
VH: B1 VH with T58V, N61S, G99M
VL: B1 VL with V55Q, N56T, S94L
B7: 6E7 variant V63 (antibody, V domains shown)
VH: B1 VH with G30R, N61S, G99S
VL: B1 VL with V55Q, N56R, S93R, S94F
B8: 6E7 variant V64 (antibody, V domains shown)
VH: B1 VH with G30Q, N61S
VL: B1 VL with V55A, S94Y
B9: 6E7 variant V53 (antibody, V domains shown)
VH: B1 VH with G30T, N61S, S63H, G99Q
VL: B1 VL with V55Q, S94F
B10: 6E7 variant V41 (antibody, V domains shown)
VH: B1 VH with G30T, I50T, N61S, G99Q
VL: B1 VL with V55Q, S94F
B11: 6E7 variant V40 (antibody, V domains shown)
VH: B1 VH with T58V, N61S, G99Q, F110S
VL: B1 VL with V55Q, N56L, S93R, S94F
B12: 6E7 variant V51 (antibody, V domains shown)
VH: B1 VH with G30T, T58V, N61S, Y112N
VL: B1 VL with L54R, V55Q, S94F
B13: 6E7 variant V49 (antibody, V domains shown)
VH: B1 VH with G30N, I50T, Y60L, N61S, G99S
VL: B1 VL with L54R, V55Q, S94Y
B14: 6E7 variant V75 (antibody, V domains shown)
VH: B1 VH with G30T, N61S
VL: B1 VL with V55Q, N56A, S94Y
B15: 6E7 variant V62 (antibody, V domains shown)
VH: B1 VH with N61A, G99Q, D108G
VL: B1 VL with V55Q, N56R, Q89G, S94F
B16: 6E7 variant V60 (antibody, V domains shown)
VH: B1 VH with S28H, G30T, T58V, N61S, G99Q, F110S
VL: B1 VL with V55Q, N56R, Q89G, S94F
B17: 6E7 variant V73 (antibody, V domains shown)
VH: B1 VH with N61S, S63G
VL: B1 VL with L54R, V55Q, S94Y
B18: 6E7 variant V61 (antibody, V domains shown)
VH: B1 VH with G30S
VL: B1 VL with S94L
B19: 6E7 variant V65 (antibody, V domains shown)
VH: B1 VH with G30T, N61S, G99S
VL: B1 VL with V55Q, S94F
B20: 6E7 variant V76 (antibody, V domains shown)
VH: B1 VH with N61S, S63E, G99Q, F110S
VL: B1 VL with V55Q, N56K, T69R, S94F

Where a chain is given by its changes, count along the chain named.

The first assay addresses T1, human TREM2 (human). As to the kind of experiment: 1st screen, 10 nM Ab.
In the case of B1, the Binding Signal (fold over 6E7 parental antibody) turned out to be 6.15 fold.

Consider B2, for which the Binding Signal (fold over 6E7 parental antibody) came to 1.68 fold.

With B3, the Binding Signal (fold over 6E7 parental antibody) amounted to 3.94 fold.

For the molecule B4, the Binding Signal (fold over 6E7 parental antibody) was determined as 2.55 fold.

B5: the Binding Signal (fold over 6E7 parental antibody) amounted to 4.1 fold.

For B6, the Binding Signal (fold over 6E7 parental antibody) turned out to be 2.42 fold.

For B7, the Binding Signal (fold over 6E7 parental antibody) was 3.76 fold.

As for B8, the Binding Signal (fold over 6E7 parental antibody) was found to be 5.41 fold.

Regarding B9, the Binding Signal (fold over 6E7 parental antibody) is 1.25 fold.

B10: the Binding Signal (fold over 6E7 parental antibody) turned out to be 1.74 fold.

B11: the Binding Signal (fold over 6E7 parental antibody) is 4.48 fold.

Turning to B12, the Binding Signal (fold over 6E7 parental antibody) is 2.81 fold.

Consider B13, for which the Binding Signal (fold over 6E7 parental antibody) was 6.51 fold.

For B14, the Binding Signal (fold over 6E7 parental antibody) worked out at 4.64 fold.

As for B15, the Binding Signal (fold over 6E7 parental antibody) was found to be 2.49 fold.

On to B16, for which the Binding Signal (fold over 6E7 parental antibody) was 3.26 fold.

Take B17: the Binding Signal (fold over 6E7 parental antibody) amounted to 5.12 fold.

With B18, the Binding Signal (fold over 6E7 parental antibody) is 5.08 fold.

As for B19, the Binding Signal (fold over 6E7 parental antibody) turned out to be 2.05 fold.

For B20, the Binding Signal (fold over 6E7 parental antibody) was found to be 4.57 fold.

Another assay has as its target T1, human TREM2 (human). As to the kind of experiment: 2nd screen, 10 nM Ab.
In the case of B1, the Binding Signal (fold over 6E7 parental antibody) is 5.81 fold.

For B2, the Binding Signal (fold over 6E7 parental antibody) came to 1.92 fold.

Regarding B3, the Binding Signal (fold over 6E7 parental antibody) stood at 4.01 fold.

On to B4, for which the Binding Signal (fold over 6E7 parental antibody) came to 2.9 fold.

In the case of B5, the Binding Signal (fold over 6E7 parental antibody) is 4.16 fold.

In the case of B6, the Binding Signal (fold over 6E7 parental antibody) stood at 2.54 fold.

Regarding B7, the Binding Signal (fold over 6E7 parental antibody) was 3.71 fold.

B8: the Binding Signal (fold over 6E7 parental antibody) amounted to 5.48 fold.

As to B9, the Binding Signal (fold over 6E7 parental antibody) came to 1.17 fold.

For B10, the Binding Signal (fold over 6E7 parental antibody) came out at 1.72 fold.

As for B11, the Binding Signal (fold over 6E7 parental antibody) was 4.16 fold.

Take B12: the Binding Signal (fold over 6E7 parental antibody) was found to be 3.18 fold.

Consider B13, for which the Binding Signal (fold over 6E7 parental antibody) came to 6.58 fold.

Regarding B14, the Binding Signal (fold over 6E7 parental antibody) was determined as 4.52 fold.

In the case of B15, the Binding Signal (fold over 6E7 parental antibody) amounted to 2.89 fold.

In the case of B16, the Binding Signal (fold over 6E7 parental antibody) was 3.63 fold.

For the molecule B17, the Binding Signal (fold over 6E7 parental antibody) was determined as 5.44 fold.

As for B18, the Binding Signal (fold over 6E7 parental antibody) was 5.22 fold.

On to B19, for which the Binding Signal (fold over 6E7 parental antibody) came out at 2.75 fold.

As to B20, the Binding Signal (fold over 6E7 parental antibody) worked out at 4.93 fold.

The next assay has as its target T1, human TREM2 (human). Description: 2nd screen, 2 nM Ab.
With B1, the Binding Signal (fold over 6E7 parental antibody) came to 5.11 fold.

As to B2, the Binding Signal (fold over 6E7 parental antibody) is 1.29 fold.

As for B3, the Binding Signal (fold over 6E7 parental antibody) stood at 2.54 fold.

On to B4, for which the Binding Signal (fold over 6E7 parental antibody) was 2.23 fold.

On to B5, for which the Binding Signal (fold over 6E7 parental antibody) came out at 3.39 fold.

In the case of B6, the Binding Signal (fold over 6E7 parental antibody) stood at 2.3 fold.

In the case of B7, the Binding Signal (fold over 6E7 parental antibody) worked out at 4.91 fold.

On to B8, for which the Binding Signal (fold over 6E7 parental antibody) amounted to 4.88 fold.

B9: the Binding Signal (fold over 6E7 parental antibody) was 0.66 fold.

With B10, the Binding Signal (fold over 6E7 parental antibody) came to 0.58 fold.

Consider B11, for which the Binding Signal (fold over 6E7 parental antibody) came out at 3.41 fold.

With B12, the Binding Signal (fold over 6E7 parental antibody) was found to be 1.83 fold.

For B13, the Binding Signal (fold over 6E7 parental antibody) came out at 5.02 fold.

Regarding B14, the Binding Signal (fold over 6E7 parental antibody) is 3.74 fold.

As for B15, the Binding Signal (fold over 6E7 parental antibody) is 1.87 fold.

For the molecule B16, the Binding Signal (fold over 6E7 parental antibody) stood at 3.35 fold.

On to B17, for which the Binding Signal (fold over 6E7 parental antibody) amounted to 4.17 fold.

With B18, the Binding Signal (fold over 6E7 parental antibody) turned out to be 3.63 fold.

For B19, the Binding Signal (fold over 6E7 parental antibody) amounted to 1.29 fold.

Take B20: the Binding Signal (fold over 6E7 parental antibody) is 4.34 fold.
